In the Human Domainome abundance scans (Beltran et al. 2025) one finds abundance fitness data, which are given here for 43 variants.

± gives the uncertainty stated by the source.

First the molecules themselves.
B1: Nucleolar transcription factor 1, residues 408 to 469; numbered along this chain, P17480 (parent)
chain: KRPVSAMFIFSEEKRRQLQEERPELSESELTRLLARMWNDLSEKKKAKYKAREAALKAQSER

In the series the parent is B1. Description: abundance fitness (aPCA) (normalised: wild type 0, dead -1); higher = more abundant; growth selection in yeast, the domain comes from the species named. Particulars: Homo sapiens.
In the case of KRPVSAMFIFSEEKRRQLQEERPELSESELTRLLARMWNDLSEKKKAPYKAREAALKAQSER, the abundance fitness is -0.009 ± 0.074.
As for KRPVSAMFIFSEEKRRQLQEERPELSESELTRLLARMWNDLSEKKKASYKAREAALKAQSER, the figure is -0.048 ± 0.052.
For the variant KRPVSAMFIFSEEKRRQLQEERPELSESELTRLLARMWNDLSEKKKAQYKAREAALKAQSER, the abundance fitness is -0.091 ± 0.18.
For KRPVSAMFIFSEEKRRQLQEERPELSESELTRLLARMWNDLSEKKKATYKAREAALKAQSER, the abundance fitness is -0.005 ± 0.053.
In the case of KRPVSAMFIFSEEKRRQLQEERPELSESELTRLLARMWNDLSEKKKANYKAREAALKAQSER, the abundance fitness stood at 0.029 ± 0.18.
For KRPVSAMFIFSEEKRRQLQEERPELSESELTRLLARMWNDLSEKKKAVYKAREAALKAQSER, the abundance fitness is -0.101 ± 0.055.
The value for KRPVSAMFIFSEEKRRQLQEERPELSESELTRLLARMWNDLSEKKKAMYKAREAALKAQSER was -0.022 ± 0.056; that for KRPVSAMFIFSEEKRRQLQEERPELSESELTRLLARMWNDLSEKKKARYKAREAALKAQSER was -0.047 ± 0.05.
As for KRPVSAMFIFSEEKRRQLQEERPELSESELTRLLARMWNDLSEKKKALYKAREAALKAQSER, the figure is -0.11 ± 0.051.
The value for KRPVSAMFIFSEEKRRQLQEERPELSESELTRLLARMWNDLSEKKKAWYKAREAALKAQSER was -0.094 ± 0.061; that for KRPVSAMFIFSEEKRRQLQEERPELSESELTRLLARMWNDLSEKKKAIYKAREAALKAQSER was -0.264 ± 0.36.
KRPVSAMFIFSEEKRRQLQEERPELSESELTRLLARMWNDLSEKKKAHYKAREAALKAQSER: the abundance fitness was -0.213 ± 0.35.
Turning to KRPVSAMFIFSEEKRRQLQEERPELSESELTRLLARMWNDLSEKKKAYYKAREAALKAQSER, the abundance fitness is -0.209 ± 0.18.
With KRPVSAMFIFSEEKRRQLQEERPELSESELTRLLARMWNDLSEKKKAKHKAREAALKAQSER, the abundance fitness is -0.597 ± 0.096.
As for KRPVSAMFIFSEEKRRQLQEERPELSESELTRLLARMWNDLSEKKKAKDKAREAALKAQSER, the abundance fitness is -0.626 ± 0.075.
The value for KRPVSAMFIFSEEKRRQLQEERPELSESELTRLLARMWNDLSEKKKAKLKAREAALKAQSER was -0.577 ± 0.054; that for KRPVSAMFIFSEEKRRQLQEERPELSESELTRLLARMWNDLSEKKKAKTKAREAALKAQSER was -0.798 ± 0.12; that for KRPVSAMFIFSEEKRRQLQEERPELSESELTRLLARMWNDLSEKKKAKNKAREAALKAQSER was -0.807 ± 0.09.
As for KRPVSAMFIFSEEKRRQLQEERPELSESELTRLLARMWNDLSEKKKAKGKAREAALKAQSER, the figure is -0.761 ± 0.038; as for KRPVSAMFIFSEEKRRQLQEERPELSESELTRLLARMWNDLSEKKKAKWKAREAALKAQSER, -0.022 ± 0.06.
As for KRPVSAMFIFSEEKRRQLQEERPELSESELTRLLARMWNDLSEKKKAKKKAREAALKAQSER, the abundance fitness was -0.861 ± 0.1.
As for KRPVSAMFIFSEEKRRQLQEERPELSESELTRLLARMWNDLSEKKKAKPKAREAALKAQSER, the figure is -0.615 ± 0.084; as for KRPVSAMFIFSEEKRRQLQEERPELSESELTRLLARMWNDLSEKKKAKRKAREAALKAQSER, -0.913 ± 0.056; as for KRPVSAMFIFSEEKRRQLQEERPELSESELTRLLARMWNDLSEKKKAKQKAREAALKAQSER, -0.756 ± 0.17.
For KRPVSAMFIFSEEKRRQLQEERPELSESELTRLLARMWNDLSEKKKAKVKAREAALKAQSER, the abundance fitness was -0.82 ± 0.052.
The value for KRPVSAMFIFSEEKRRQLQEERPELSESELTRLLARMWNDLSEKKKAKEKAREAALKAQSER was -0.643 ± 0.062; that for KRPVSAMFIFSEEKRRQLQEERPELSESELTRLLARMWNDLSEKKKAKSKAREAALKAQSER was -0.718 ± 0.058.
The value for KRPVSAMFIFSEEKRRQLQEERPELSESELTRLLARMWNDLSEKKKAKMKAREAALKAQSER was -0.839 ± 0.08; that for KRPVSAMFIFSEEKRRQLQEERPELSESELTRLLARMWNDLSEKKKAKFKAREAALKAQSER was -0.221 ± 0.078.
The value for KRPVSAMFIFSEEKRRQLQEERPELSESELTRLLARMWNDLSEKKKAKYMAREAALKAQSER was -0.096 ± 0.083; that for KRPVSAMFIFSEEKRRQLQEERPELSESELTRLLARMWNDLSEKKKAKYGAREAALKAQSER was -0.251 ± 0.074.
With KRPVSAMFIFSEEKRRQLQEERPELSESELTRLLARMWNDLSEKKKAKYPAREAALKAQSER, the abundance fitness was -0.65 ± 0.077.
As for KRPVSAMFIFSEEKRRQLQEERPELSESELTRLLARMWNDLSEKKKAKYSAREAALKAQSER, the figure is -0.131 ± 0.053; as for KRPVSAMFIFSEEKRRQLQEERPELSESELTRLLARMWNDLSEKKKAKYIAREAALKAQSER, 0.005 ± 0.11.
With KRPVSAMFIFSEEKRRQLQEERPELSESELTRLLARMWNDLSEKKKAKYQAREAALKAQSER, the abundance fitness was -0.016 ± 0.079.
KRPVSAMFIFSEEKRRQLQEERPELSESELTRLLARMWNDLSEKKKAKYEAREAALKAQSER: the abundance fitness is -0.017 ± 0.08.
As for KRPVSAMFIFSEEKRRQLQEERPELSESELTRLLARMWNDLSEKKKAKYDAREAALKAQSER, the figure is -0.189 ± 0.1.
The value for KRPVSAMFIFSEEKRRQLQEERPELSESELTRLLARMWNDLSEKKKAKYHAREAALKAQSER was -0.036 ± 0.13; that for KRPVSAMFIFSEEKRRQLQEERPELSESELTRLLARMWNDLSEKKKAKYRAREAALKAQSER was -0.032 ± 0.055; that for KRPVSAMFIFSEEKRRQLQEERPELSESELTRLLARMWNDLSEKKKAKYVAREAALKAQSER was -0.038 ± 0.064.
For KRPVSAMFIFSEEKRRQLQEERPELSESELTRLLARMWNDLSEKKKAKYCAREAALKAQSER, the abundance fitness is -0.049 ± 0.099.
The value for KRPVSAMFIFSEEKRRQLQEERPELSESELTRLLARMWNDLSEKKKAKYFAREAALKAQSER was 0.002 ± 0.11; that for KRPVSAMFIFSEEKRRQLQEERPELSESELTRLLARMWNDLSEKKKAKYAAREAALKAQSER was -0.138 ± 0.076.
